In the experiment the target is Recombinant human TNFα (R&D Systems) (human) (UniProt P01375).
Chain of Recombinant human TNFα (R&D Systems) (human) (P01375 77-233 limits assumed): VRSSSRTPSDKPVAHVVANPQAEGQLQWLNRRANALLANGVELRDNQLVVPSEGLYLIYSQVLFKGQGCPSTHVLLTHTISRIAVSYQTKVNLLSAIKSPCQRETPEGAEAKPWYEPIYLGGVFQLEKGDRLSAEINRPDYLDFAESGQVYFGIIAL

In the case of etanercept (Fc fusion), the IC50, inhibition of TNFα-induced Caspase 3 activity in U937 cells was determined as 0.144 nM.

Source of the values: patent US20240026036A1.
